# Reference: the supplement of paper PMC12458215
# ± gives the uncertainty stated by the source.
# Tested on: HEK293T
# Assay: plasma membrane surface immunostaining intensity (anti-HA, deep receptor scanning) (arbitrary fluorescence units); higher = higher plasma membrane expression
Sequence,plasma membrane surface immunostaining intensity (GPCR class: A (Olfactory)),plasma membrane surface immunostaining intensity (GPCR class: A),other results
MEGNKTWITDITLPRFQVGPALEILLCGLFSAFYTLTLLGNGVIFGIICLDCKLHTPMYFFLSHLAIVDISYASNYVPKMLTNLMNQESTISFFPCIMQTFLYLAFAHVECLILVVMSYDRYADICHPLRYNSLMSWRVCTVLAVASWVFSFLLALVPLVLILSLPFCGPHEINHFFCEILSVLKLACADTWLNQVVIFAACVFILVGPLCLVLVSYLRILAAILRIQSGEGRRKAFSTCSSHLCVVGLFFGSAIVTYMAPKSRHPEEQQKVLSLFYSLFNPMLNPLIYSLRNAEVKGALRRALRKERLT [OR2A14],121 ± 40,,
MVFLSGNASDSSNCTQPPAPVNISKAILLGVILGGLILFGVLGNILVILSVACHRHLHSVTHYYIVNLAVADLLLTSTVLPFSAIFEVLGYWAFGRVFCNIWAAVDVLCCTASIMGLCIISIDRYIGVSYPLRYPTIVTQRRGLMALLCVWALSLVISIGPLFGWRQPAPEDETICQINEEPGYVLFSALGSFYLPLAIILVMYCRVYVVAKRESRGLKSGLKTDKSDSEQVTLRIHRKNAPAGGSGMASAKTKTHFSVRLLKFSREKKAAKTLGIVVGCFVLCWLPFFLVMPIGSFFPDFKPSETVFKIVFWLGYLNSCINPIIYPCSSQEFKKAFQNVLRIQCLCRKQSSKHALGYTLHPPSQAVEGQHKDMVRIPVGSRETFYRISKTDGVCEWKFFSSMPRGSARITVSKDQSSCTTARVRSKSFLQVCCCVGPSTPSLDKNHQVPTIKVHTISLSENGEEV [ADRA1A],,2110 ± 600,
MGKENCTTVAEFILLGLSDVPELRVCLFLLFLLIYGVTLLANLGMTALIQVSSRLHTPVYFFLSHLSFVDFCYSSIIVPKMLANIFNKDKAISFLGCMVQFYLFCTCGVTEVFLLAVMAYDRFVAICNPLLYMVTMSQKLRVELTSCCYFCGTVCSLIHSSLALRILFYRSNVINHFFCDLPPLLSLACSDVTVNETLLFLVATLNESVTIMIILTSYLLILTTILKIHSAESRHKAFSTCASHLTAITVSHGTILYIYCRPSSGNSGDVDKVATVFYTVVIPMLNPLIYSLRNKDVNKALRKVMGSKIHS [OR5L2],140 ± 35,,
MDTSRLGVLLSLPVLLQLATGGSSPRSGVLLRGCPTHCHCEPDGRMLLRVDCSDLGLSELPSNLSVFTSYLDLSMNNISQLLPNPLPSLRFLEELRLAGNALTYIPKGAFTGLYSLKVLMLQNNQLRHVPTEALQNLRSLQSLRLDANHISYVPPSCFSGLHSLRHLWLDDNALTEIPVQAFRSLSALQAMTLALNKIHHIPDYAFGNLSSLVVLHLHNNRIHSLGKKCFDGLHSLETLDLNYNNLDEFPTAIRTLSNLKELGFHSNNIRSIPEKAFVGNPSLITIHFYDNPIQFVGRSAFQHLPELRTLTLNGASQITEFPDLTGTANLESLTLTGAQISSLPQTVCNQLPNLQVLDLSYNLLEDLPSFSVCQKLQKIDLRHNEIYEIKVDTFQQLLSLRSLNLAWNKIAIIHPNAFSTLPSLIKLDLSSNLLSSFPITGLHGLTHLKLTGNHALQSLISSENFPELKVIEMPYAYQCCAFGVCENAYKISNQWNKGDNSSMDDLHKKDAGMFQAQDERDLEDFLLDFEEDLKALHSVQCSPSPGPFKPCEHLLDGWLIRIGVWTIAVLALTCNALVTSTVFRSPLYISPIKLLIGVIAAVNMLTGVSSAVLAGVDAFTFGSFARHGAWWENGVGCHVIGFLSIFASESSVFLLTLAALERGFSVKYSAKFETKAPFSSLKVIILLCALLALTMAAVPLLGGSKYGASPLCLPLPFGEPSTMGYMVALILLNSLCFLMMTIAYTKLYCNLDKGDLENIWDCSMVKHIALLLFTNCILNCPVAFLSFSSLINLTFISPEVIKFILLVVVPLPACLNPLLYILFNPHFKEDLVSLRKQTYVWTRSKHPSLMSINSDDVEKQSCDSTQALVTFTSSSITYDLPPSSVPSPAYPVTESCHLSSVAFVPCL [LGR5],,283 ± 25,
MESENRTVIREFILLGLTQSQDIQLLVFVLVLIFYFIILPGNFLIIFTIKSDPGLTAPLYFFLGNLAFLDASYSFIVAPRMLVDFLSAKKIISYRGCITQLFFLHFLGGGEGLLLVVMAFDRYIAICRPLHYPTVMNPRTCYAMMLALWLGGFVHSIIQVVLILRLPFCGPNQLDNFFCDVPQVIKLACTDTFVVELLMVFNSGLMTLLCFLGLLASYAVILCRIRGSSSEAKNKAMSTCITHIIVIFFMFGPGIFIYTRPFRAFPADKVVSLFHTVIFPLLNPVIYTLRNQEVKASMKKVFNKHIA [OR4N2],134 ± 28,,
MKSILDGLADTTFRTITTDLLYVGSNDIQYEDIKGDMASKLGYFPQKFPLTSFRGSPFQEKMTAGDNPQLVPADQVNITEFYNKSLSSFKENEENIQCGENFMDIECFMVLNPSQQLAIAVLSLTLGTFTVLENLLVLCVILHSRSLRCRPSYHFIGSLAVADLLGSVIFVYSFIDFHVFHRKDSRNVFLFKLGGVTASFTASVGSLFLTAIDRYISIHRPLAYKRIVTRPKAVVAFCLMWTIAIVIAVLPLLGWNCEKLQSVCSDIFPHIDETYLMFWIGVTSVLLLFIVYAYMYILWKAHSHAVRMIQRGTQKSIIIHTSEDGKVQVTRPDQARMDIRLAKTLVLILVVLIICWGPLLAIMVYDVFGKMNKLIKTVFAFCSMLCLLNSTVNPIIYALRSKDLRHAFRSMFPSCEGTAQPLDNSMGDSDCLHKHANNAASVHRAAESCIKSTVKIAKVTMSVSTDTSAEAL [CNR1],,130 ± 25,
MFSPWKISMFLSVREDSVPTTASFSADMLNVTLQGPTLNGTFAQSKCPQVEWLGWLNTIQPPFLWVLFVLATLENIFVLSVFCLHKSSCTVAEIYLGNLAAADLILACGLPFWAITISNNFDWLFGETLCRVVNAIISMNLYSSICFLMLVSIDRYLALVKTMSMGRMRGVRWAKLYSLVIWGCTLLLSSPMLVFRTMKEYSDEGHNVTACVISYPSLIWEVFTNMLLNVVGFLLPLSVITFCTMQIMQVLRNNEMQKFKEIQTERRATVLVLVVLLLFIICWLPFQISTFLDTLHRLGILSSCQDERIIDVITQIASFMAYSNSCLNPLVYVIVGKRFRKKSWEVYQGVCQKGGCRSEPIQMENSMGTLRTSISVERQIHKLQDWAGSRQ [BDKRB2],,664 ± 47,
MEETNNSSEKGFLLLGFSDQPQLERFLFAIILYFYVLSLLGNTALILVCCLDSRLHTPMYFFLSNLSCVDICFTTSVAPQLLVTMNKKDKTMSYGGCVAQLYVAMGLGSSECILLAVMAYDRYAAVCRPLRYIAIMHPRFCASLAGGAWLSGLITSLIQCSLTVQLPLCGHRTLDHIFCEVPVLIKLACVDTTFNEAELFVASVVFLIVPVLLILVSYGFITQAVLRIKSAAGRQKAFGTCSSHLVVVIIFYGTIIFMYLQPANRRSKNQGKFVSLFYTIVTPLLNPIIYTLRNKDVKGALRTLILGSAAGQSHKD [OR2G6],122 ± 18,,
MDPTTPAWGTESTTVNGNDQALLLLCGKETLIPVFLILFIALVGLVGNGFVLWLLGFRMRRNAFSVYVLSLAGADFLFLCFQIINCLVYLSNFFCSISINFPSFFTTVMTCAYLAGLSMLSTVSTERCLSVLWPIWYRCRRPRHLSAVVCVLLWALSLLLSILEGKFCGFLFSDGDSGWCQTFDFITAAWLIFLFMVLCGSSLALLVRILCGSRGLPLTRLYLTILLTVLVFLLCGLPFGIQWFLILWIWKDSDVLFCHIHPVSVVLSSLNSSANPIIYFFVGSFRKQWRLQQPILKLALQRALQDIAEVDHSEGCFRQGTPEMSRSSLV [MRGPRX2],,359 ± 8.2,
METNFSIPLNETEEVLPEPAGHTVLWIFSLLVHGVTFVFGVLGNGLVIWVAGFRMTRTVNTICYLNLALADFSFSAILPFRMVSVAMREKWPFGSFLCKLVHVMIDINLFVSVYLITIIALDRCICVLHPAWAQNHRTMSLAKRVMTGLWIFTIVLTLPNFIFWTTISTTNGDTYCIFNFAFWGDTAVERLNVFITMAKVFLILHFIIGFSVPMSIITVCYGIIAAKIHRNHMIKSSRPLRVFAAVVASFFICWFPYELIGILMAVWLKEMLLNGKYKIILVLINPTSSLAFFNSCLNPILYVFMGRNFQERLIRSLPTSLERALTEVPDSAQTSNTDTTSASPPEETELQAM [FPR3],,6430 ± 58,
MYKDCIESTGDYFLLCDAEGPWGIILESLAILGIVVTILLLLAFLFLMRKIQDCSQWNVLPTQLLFLLSVLGLFGLAFAFIIELNQQTAPVRYFLFGVLFALCFSCLLAHASNLVKLVRGCVSFSWTTILCIAIGCSLLQIIIATEYVTLIMTRGMMFVNMTPCQLNVDFVVLLVYVLFLMALTFFVSKATFCGPCENWKQHGRLIFITVLFSIIIWVVWISMLLRGNPQFQRQPQWDDPVVCIALVTNAWVFLLLYIVPELCILYRSCRQECPLQGNACPVTAYQHSFQVENQELSRARDSDGAEEDVALTSYGTPIQPQTVDPTQECFIPQAKLSPQQDAGGV [GPRC5D],,,plasma membrane surface immunostaining intensity (GPCR class: C): 6410 ± 68
MDLKTVLSLPRYPGEFLHPVVYACTAVMLLCLLASFVTYIVHQSAIRISRKGRHTLLNFCFHAALTFTVFAGGINRTKYPILCQAVGIVLHYSTLSTMLWIGVTARNIYKQVTKKAPLCLDTDQPPYPRQPLLRFYLVSGGVPFIICGVTAATNIRNYGTEDEDTAYCWMAWEPSLGAFYGPAAIITLVTCVYFLGTYVQLRRHPGRRYELRTQPEEQRRLATPEGGRGIRPGTPPAHDAPGASVLQNEHSFQAQLRAAAFTLFLFTATWAFGALAVSQGHFLDMVFSCLYGAFCVTLGLFVLIHHCAKREDVWQCWWACCPPRKDAHPALDANGAALGRAACLHSPGLGQPRGFAHPPGPCKMTNLQAAQGHASCLSPATPCCAKMHCEPLTADEAHVHLQEEGAFGHDPHLHGCLQGRTKPPYFSRHPAEEPEYAYHIPSSLDGSPRSSRTDSPPSSLDGPAGTHTLACCTQGDPFPMVTQPEGSDGSPALYSCPTQPGREAALGPGHLEMLRRTQSLPFGGPSQNGLPKGKLLEGLPFGTDGTGNIRTGPWKNETTV [ADGRA1],,,plasma membrane surface immunostaining intensity (GPCR class: B): 2640 ± 630
MEAANESSEGISFVLLGLTTSPGQQRPLFVLFLLLYVASLLGNGLIVAAIQASPALHAPMYFLLAHLSFADLCFASVTVPKMLANLLAHDHSISLAGCLTQMYFFFALGVTDSCLLAAMAYDCYVAIRHPLPYATRMSRAMCAALVGMAWLVSHVHSLLYILLMARLSFCASHQVPHFFCDHQPLLRLSCSDTHHIQLLIFTEGAAVVVTPFLLILASYGAIAAAVLQLPSASGRLRAVSTCGSHLAVVSLFYGTVIAVYFQATSRREAEWGRVATVMYTVVTPMLNPIIYSLWNRDVQGALRALLIGRRISASDS [OR1K1],223 ± 69,,
MARPDPSAPPSLLLLLLAQLVGRAAAASKAPVCQEITVPMCRGIGYNLTHMPNQFNHDTQDEAGLEVHQFWPLVEIQCSPDLRFFLCSMYTPICLPDYHKPLPPCRSVCERAKAGCSPLMRQYGFAWPERMSCDRLPVLGRDAEVLCMDYNRSEATTAPPRPFPAKPTLPGPPGAPASGGECPAGGPFVCKCREPFVPILKESHPLYNKVRTGQVPNCAVPCYQPSFSADERTFATFWIGLWSVLCFISTSTTVATFLIDMERFRYPERPIIFLSACYLCVSLGFLVRLVVGHASVACSREHNHIHYETTGPALCTIVFLLVYFFGMASSIWWVILSLTWFLAAGMKWGNEAIAGYAQYFHLAAWLIPSVKSITALALSSVDGDPVAGICYVGNQNLNSLRGFVLGPLVLYLLVGTLFLLAGFVSLFRIRSVIKQGGTKTDKLEKLMIRIGIFTLLYTVPASIVVACYLYEQHYRESWEAALTCACPGHDTGQPRAKPEYWVLMLKYFMCLVVGITSGVWIWSGKTVESWRRFTSRCCCRPRRGHKSGGAMAAGDYPEASAALTGRTGPPGPAATYHKQVSLSHV [FZD5],,,plasma membrane surface immunostaining intensity (GPCR class: F): 4020 ± 200
